# Test results: patent US20240270846A1 (published 2024)
# Biological target: T1, CD3 epsilon homodimer protein (UniProt P07766 23-126)
# T1 construct: also called CD3 (CD3 epsilon)
# Test: SPR Biacore T200, CD3 epsilon homodimer on chip, antibody as analyte;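 also: homodimer amine-coupled to a CM4 sensor chip, run at 25 °C in HBS-EP+ buffer, with kinetic parameters derived in Biacore T200 Evaluation Software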
# T1 sequence (P07766 23-126): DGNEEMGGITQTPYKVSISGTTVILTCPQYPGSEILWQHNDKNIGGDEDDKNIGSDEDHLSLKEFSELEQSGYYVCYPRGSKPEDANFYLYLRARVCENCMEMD
row,KD ratio (KD of CE115HA000 / KD of altered form),Binder
1,7.23,"CE115HA000 H chain altered form H35I (antibody, human IgG1, kappa, L234A L235A, N297A, name in Kabat numbering, one-arm antibody) heavy: QVQLVESGGGVVQPGRSLRLSCAASGFTFSNAWMIWVRQAPGKGLEWVAQIKAKSNNYATYYAESVKGRFTISRDDSKNSLYLQMNSLKTEDTAVYYCRYVHYGAYYGVDAWGQGTTVTVSSASTKGPSVFPLAPSSKSTSGGTAALGCLVKDYFPEPVTVSWNSGALTSGVHTFPAVLQSSGLYSLSSVVTVPSSSLGTQTYICNVNHKPSNTKVDKKVEPKSCDKTHTCPPCPAPEAAGGPSVFLFPPKPKDTLMISRTPEVTCVVVDVSHEDPEVKFNWYVDGVEVHNAKTKPREEQYASTYRVVSVLTVLHQDWLNGKEYKCKVSNKALPAPIEKTISKAKGQPREPQVYTLPPSRCELTKNQVSLSCAVKGFYPSDIAVEWESNGQPENNYKTTPPVLDSDGSFFLVSKLTVDKSRWQQGNVFSCSVMHEALHNHYTQKSLSLSPDYKDDDDK EPKSSDKTHTCPPCPAPELLGGPSVFLFPPKPKDTLMISRTPEVTCVVVDVSHEDPEVKFNWYVDGVEVHNAKTKPREEQYNSTYRVVSVLTVLHQDWLNGKEYKCKVSNKALPAPIEKTISKAKGQPREPQVCTLPPSRDELTKNQVSLWCLVKGFYPSDIAVEWESNGQPENNYKTTPPVLDSDGSFFLYSKLTVDKSRWQQGNVFSCSVMHEALHNRYTQKSLSLSP light: DIVMTQSPLSLPVTPGEPASISCRSSQSLVHSNRNTYLHWYQQKPGQAPRLLIYKVSNRFSGVPDRFSGSGSGTDFTLKISRVEAEDVGVYYCGQGTQVPYTFGQGTKLEIKRTVAAPSVFIFPPSDEQLKSGTASVVCLLNNFYPREAKVQWKVDNALQSGNSQESVTEQDSKDSTYSLSSTLTLSKADYEKHKVYACEVTHQGLSSPVTKSFNRGEC"
2,2.88,"CE115HA000 H chain altered form H35N (antibody, human IgG1, kappa, L234A L235A, N297A, name in Kabat numbering, one-arm antibody) heavy: QVQLVESGGGVVQPGRSLRLSCAASGFTFSNAWMNWVRQAPGKGLEWVAQIKAKSNNYATYYAESVKGRFTISRDDSKNSLYLQMNSLKTEDTAVYYCRYVHYGAYYGVDAWGQGTTVTVSSASTKGPSVFPLAPSSKSTSGGTAALGCLVKDYFPEPVTVSWNSGALTSGVHTFPAVLQSSGLYSLSSVVTVPSSSLGTQTYICNVNHKPSNTKVDKKVEPKSCDKTHTCPPCPAPEAAGGPSVFLFPPKPKDTLMISRTPEVTCVVVDVSHEDPEVKFNWYVDGVEVHNAKTKPREEQYASTYRVVSVLTVLHQDWLNGKEYKCKVSNKALPAPIEKTISKAKGQPREPQVYTLPPSRCELTKNQVSLSCAVKGFYPSDIAVEWESNGQPENNYKTTPPVLDSDGSFFLVSKLTVDKSRWQQGNVFSCSVMHEALHNHYTQKSLSLSPDYKDDDDK EPKSSDKTHTCPPCPAPELLGGPSVFLFPPKPKDTLMISRTPEVTCVVVDVSHEDPEVKFNWYVDGVEVHNAKTKPREEQYNSTYRVVSVLTVLHQDWLNGKEYKCKVSNKALPAPIEKTISKAKGQPREPQVCTLPPSRDELTKNQVSLWCLVKGFYPSDIAVEWESNGQPENNYKTTPPVLDSDGSFFLYSKLTVDKSRWQQGNVFSCSVMHEALHNRYTQKSLSLSP light: DIVMTQSPLSLPVTPGEPASISCRSSQSLVHSNRNTYLHWYQQKPGQAPRLLIYKVSNRFSGVPDRFSGSGSGTDFTLKISRVEAEDVGVYYCGQGTQVPYTFGQGTKLEIKRTVAAPSVFIFPPSDEQLKSGTASVVCLLNNFYPREAKVQWKVDNALQSGNSQESVTEQDSKDSTYSLSSTLTLSKADYEKHKVYACEVTHQGLSSPVTKSFNRGEC"
3,4.8,"CE115HA000 H chain altered form H35L (antibody, human IgG1, kappa, L234A L235A, N297A, name in Kabat numbering, one-arm antibody) heavy: QVQLVESGGGVVQPGRSLRLSCAASGFTFSNAWMLWVRQAPGKGLEWVAQIKAKSNNYATYYAESVKGRFTISRDDSKNSLYLQMNSLKTEDTAVYYCRYVHYGAYYGVDAWGQGTTVTVSSASTKGPSVFPLAPSSKSTSGGTAALGCLVKDYFPEPVTVSWNSGALTSGVHTFPAVLQSSGLYSLSSVVTVPSSSLGTQTYICNVNHKPSNTKVDKKVEPKSCDKTHTCPPCPAPEAAGGPSVFLFPPKPKDTLMISRTPEVTCVVVDVSHEDPEVKFNWYVDGVEVHNAKTKPREEQYASTYRVVSVLTVLHQDWLNGKEYKCKVSNKALPAPIEKTISKAKGQPREPQVYTLPPSRCELTKNQVSLSCAVKGFYPSDIAVEWESNGQPENNYKTTPPVLDSDGSFFLVSKLTVDKSRWQQGNVFSCSVMHEALHNHYTQKSLSLSPDYKDDDDK EPKSSDKTHTCPPCPAPELLGGPSVFLFPPKPKDTLMISRTPEVTCVVVDVSHEDPEVKFNWYVDGVEVHNAKTKPREEQYNSTYRVVSVLTVLHQDWLNGKEYKCKVSNKALPAPIEKTISKAKGQPREPQVCTLPPSRDELTKNQVSLWCLVKGFYPSDIAVEWESNGQPENNYKTTPPVLDSDGSFFLYSKLTVDKSRWQQGNVFSCSVMHEALHNRYTQKSLSLSP light: DIVMTQSPLSLPVTPGEPASISCRSSQSLVHSNRNTYLHWYQQKPGQAPRLLIYKVSNRFSGVPDRFSGSGSGTDFTLKISRVEAEDVGVYYCGQGTQVPYTFGQGTKLEIKRTVAAPSVFIFPPSDEQLKSGTASVVCLLNNFYPREAKVQWKVDNALQSGNSQESVTEQDSKDSTYSLSSTLTLSKADYEKHKVYACEVTHQGLSSPVTKSFNRGEC"
4,4.8,"CE115HA000 H chain altered form H35Q (antibody, human IgG1, kappa, L234A L235A, N297A, name in Kabat numbering, one-arm antibody) heavy: QVQLVESGGGVVQPGRSLRLSCAASGFTFSNAWMQWVRQAPGKGLEWVAQIKAKSNNYATYYAESVKGRFTISRDDSKNSLYLQMNSLKTEDTAVYYCRYVHYGAYYGVDAWGQGTTVTVSSASTKGPSVFPLAPSSKSTSGGTAALGCLVKDYFPEPVTVSWNSGALTSGVHTFPAVLQSSGLYSLSSVVTVPSSSLGTQTYICNVNHKPSNTKVDKKVEPKSCDKTHTCPPCPAPEAAGGPSVFLFPPKPKDTLMISRTPEVTCVVVDVSHEDPEVKFNWYVDGVEVHNAKTKPREEQYASTYRVVSVLTVLHQDWLNGKEYKCKVSNKALPAPIEKTISKAKGQPREPQVYTLPPSRCELTKNQVSLSCAVKGFYPSDIAVEWESNGQPENNYKTTPPVLDSDGSFFLVSKLTVDKSRWQQGNVFSCSVMHEALHNHYTQKSLSLSPDYKDDDDK EPKSSDKTHTCPPCPAPELLGGPSVFLFPPKPKDTLMISRTPEVTCVVVDVSHEDPEVKFNWYVDGVEVHNAKTKPREEQYNSTYRVVSVLTVLHQDWLNGKEYKCKVSNKALPAPIEKTISKAKGQPREPQVCTLPPSRDELTKNQVSLWCLVKGFYPSDIAVEWESNGQPENNYKTTPPVLDSDGSFFLYSKLTVDKSRWQQGNVFSCSVMHEALHNRYTQKSLSLSP light: DIVMTQSPLSLPVTPGEPASISCRSSQSLVHSNRNTYLHWYQQKPGQAPRLLIYKVSNRFSGVPDRFSGSGSGTDFTLKISRVEAEDVGVYYCGQGTQVPYTFGQGTKLEIKRTVAAPSVFIFPPSDEQLKSGTASVVCLLNNFYPREAKVQWKVDNALQSGNSQESVTEQDSKDSTYSLSSTLTLSKADYEKHKVYACEVTHQGLSSPVTKSFNRGEC"
5,14.4,"CE115HA000 H chain altered form H35K (antibody, human IgG1, kappa, L234A L235A, N297A, name in Kabat numbering, one-arm antibody) heavy: QVQLVESGGGVVQPGRSLRLSCAASGFTFSNAWMKWVRQAPGKGLEWVAQIKAKSNNYATYYAESVKGRFTISRDDSKNSLYLQMNSLKTEDTAVYYCRYVHYGAYYGVDAWGQGTTVTVSSASTKGPSVFPLAPSSKSTSGGTAALGCLVKDYFPEPVTVSWNSGALTSGVHTFPAVLQSSGLYSLSSVVTVPSSSLGTQTYICNVNHKPSNTKVDKKVEPKSCDKTHTCPPCPAPEAAGGPSVFLFPPKPKDTLMISRTPEVTCVVVDVSHEDPEVKFNWYVDGVEVHNAKTKPREEQYASTYRVVSVLTVLHQDWLNGKEYKCKVSNKALPAPIEKTISKAKGQPREPQVYTLPPSRCELTKNQVSLSCAVKGFYPSDIAVEWESNGQPENNYKTTPPVLDSDGSFFLVSKLTVDKSRWQQGNVFSCSVMHEALHNHYTQKSLSLSPDYKDDDDK EPKSSDKTHTCPPCPAPELLGGPSVFLFPPKPKDTLMISRTPEVTCVVVDVSHEDPEVKFNWYVDGVEVHNAKTKPREEQYNSTYRVVSVLTVLHQDWLNGKEYKCKVSNKALPAPIEKTISKAKGQPREPQVCTLPPSRDELTKNQVSLWCLVKGFYPSDIAVEWESNGQPENNYKTTPPVLDSDGSFFLYSKLTVDKSRWQQGNVFSCSVMHEALHNRYTQKSLSLSP light: DIVMTQSPLSLPVTPGEPASISCRSSQSLVHSNRNTYLHWYQQKPGQAPRLLIYKVSNRFSGVPDRFSGSGSGTDFTLKISRVEAEDVGVYYCGQGTQVPYTFGQGTKLEIKRTVAAPSVFIFPPSDEQLKSGTASVVCLLNNFYPREAKVQWKVDNALQSGNSQESVTEQDSKDSTYSLSSTLTLSKADYEKHKVYACEVTHQGLSSPVTKSFNRGEC"
6,3.98,"CE115HA000 H chain altered form H35M (antibody, human IgG1, kappa, L234A L235A, N297A, name in Kabat numbering, one-arm antibody) heavy: QVQLVESGGGVVQPGRSLRLSCAASGFTFSNAWMMWVRQAPGKGLEWVAQIKAKSNNYATYYAESVKGRFTISRDDSKNSLYLQMNSLKTEDTAVYYCRYVHYGAYYGVDAWGQGTTVTVSSASTKGPSVFPLAPSSKSTSGGTAALGCLVKDYFPEPVTVSWNSGALTSGVHTFPAVLQSSGLYSLSSVVTVPSSSLGTQTYICNVNHKPSNTKVDKKVEPKSCDKTHTCPPCPAPEAAGGPSVFLFPPKPKDTLMISRTPEVTCVVVDVSHEDPEVKFNWYVDGVEVHNAKTKPREEQYASTYRVVSVLTVLHQDWLNGKEYKCKVSNKALPAPIEKTISKAKGQPREPQVYTLPPSRCELTKNQVSLSCAVKGFYPSDIAVEWESNGQPENNYKTTPPVLDSDGSFFLVSKLTVDKSRWQQGNVFSCSVMHEALHNHYTQKSLSLSPDYKDDDDK EPKSSDKTHTCPPCPAPELLGGPSVFLFPPKPKDTLMISRTPEVTCVVVDVSHEDPEVKFNWYVDGVEVHNAKTKPREEQYNSTYRVVSVLTVLHQDWLNGKEYKCKVSNKALPAPIEKTISKAKGQPREPQVCTLPPSRDELTKNQVSLWCLVKGFYPSDIAVEWESNGQPENNYKTTPPVLDSDGSFFLYSKLTVDKSRWQQGNVFSCSVMHEALHNRYTQKSLSLSP light: DIVMTQSPLSLPVTPGEPASISCRSSQSLVHSNRNTYLHWYQQKPGQAPRLLIYKVSNRFSGVPDRFSGSGSGTDFTLKISRVEAEDVGVYYCGQGTQVPYTFGQGTKLEIKRTVAAPSVFIFPPSDEQLKSGTASVVCLLNNFYPREAKVQWKVDNALQSGNSQESVTEQDSKDSTYSLSSTLTLSKADYEKHKVYACEVTHQGLSSPVTKSFNRGEC"
